# Experimental data reported in US20260234242A1 (HAINAN SIMCERE ZAIMING PHARMACEUTICAL, published 2026).
# T1: human CDH6 on tumor cells (OVCAR3 cells, PA-1 cells) (human, UniProt P55285 54-790)
# T1 sequence: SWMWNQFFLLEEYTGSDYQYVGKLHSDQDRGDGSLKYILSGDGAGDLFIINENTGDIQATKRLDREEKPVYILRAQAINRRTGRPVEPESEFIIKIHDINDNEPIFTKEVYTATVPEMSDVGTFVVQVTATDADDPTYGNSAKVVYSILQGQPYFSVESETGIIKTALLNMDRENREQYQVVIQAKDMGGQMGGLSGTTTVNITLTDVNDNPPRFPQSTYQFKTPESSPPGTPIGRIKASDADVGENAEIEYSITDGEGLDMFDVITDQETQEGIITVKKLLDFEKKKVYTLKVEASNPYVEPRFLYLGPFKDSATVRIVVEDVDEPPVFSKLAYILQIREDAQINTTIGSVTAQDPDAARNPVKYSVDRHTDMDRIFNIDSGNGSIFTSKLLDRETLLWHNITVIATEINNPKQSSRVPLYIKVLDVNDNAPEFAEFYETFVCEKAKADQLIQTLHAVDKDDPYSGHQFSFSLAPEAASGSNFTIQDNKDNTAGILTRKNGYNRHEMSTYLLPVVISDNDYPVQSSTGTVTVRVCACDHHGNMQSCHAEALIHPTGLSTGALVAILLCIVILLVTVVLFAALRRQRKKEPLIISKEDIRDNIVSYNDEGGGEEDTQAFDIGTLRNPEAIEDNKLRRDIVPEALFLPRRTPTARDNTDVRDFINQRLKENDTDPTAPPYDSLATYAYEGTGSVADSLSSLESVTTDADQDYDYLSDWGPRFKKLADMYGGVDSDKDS
# T2: his-tagged human CDH6 extracellular region protein (hCDH6 ECD-his) (human, UniProt P55285 19-615)
# T2 construct: also called Human CDH6-his; hCDH6-his; not shown: his tag
# T2 sequence: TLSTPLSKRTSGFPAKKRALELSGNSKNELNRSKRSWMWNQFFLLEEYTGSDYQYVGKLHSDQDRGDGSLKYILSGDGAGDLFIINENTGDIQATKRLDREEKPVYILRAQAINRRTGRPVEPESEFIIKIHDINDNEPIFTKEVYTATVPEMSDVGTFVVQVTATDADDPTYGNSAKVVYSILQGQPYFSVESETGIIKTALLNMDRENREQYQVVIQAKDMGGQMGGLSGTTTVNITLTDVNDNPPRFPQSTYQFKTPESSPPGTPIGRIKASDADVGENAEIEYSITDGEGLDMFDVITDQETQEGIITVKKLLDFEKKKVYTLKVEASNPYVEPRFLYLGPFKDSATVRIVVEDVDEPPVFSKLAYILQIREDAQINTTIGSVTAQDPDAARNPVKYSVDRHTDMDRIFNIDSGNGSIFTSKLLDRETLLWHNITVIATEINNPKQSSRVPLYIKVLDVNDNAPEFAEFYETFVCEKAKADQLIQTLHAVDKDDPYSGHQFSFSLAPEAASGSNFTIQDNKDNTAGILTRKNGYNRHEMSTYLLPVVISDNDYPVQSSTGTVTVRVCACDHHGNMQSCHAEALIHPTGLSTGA
# Key:
# [1] = target: T1, human CDH6 on tumor cells (OVCAR3 …); assay: FACS, OVCAR3 cells, 4° C. arm of endocytosis assay
# Procedure: OVCAR3 cells were cultured until a confluence of 90% was reached, the medium was removed by pipetting, the cells were washed once with PBS, and then treated with an enzyme-free cell dissociation solution (Versene, purchased from Gibco, Cat. No. 15040-066) and the cells were collected. The cells were washed once with PBS, counted, resuspended to 2×10⁶ cells/mL in an FACS buffer (PBS+2% FBS), and then added to two 96-well plates at 50 μL/well. The chimeric antibodies were diluted with FACS buffer (PBS+2% FBS) to 10 μg/mL and separately added to the two 96-well plates at 50 μL/well, and the plates were incubated at 4° C. for 1 h. After the cells were washed 3 times with PBS, the cells were resuspended in an FACS buffer. One 96-well plate was incubated at 4° C. for 1 h, and the other 96-well plate was incubated at 37° C. for 1 h. […] After the plates were centrifuged and washed 2 times with PBS, the cells were resuspended in an FACS buffer. The mean fluorescence intensity (MFI) was measured using FACS Canton II (BD). The chimeric antibodies tested all had good endocytic activity.
# Some of the antibodies were selected for the endocytic activity assay, and the method for assaying the endocytic activity of the humanized antibodies in OVCAR3 cells was the same as that in 2.4. The humanized antibodies tested all had good endocytic activity.
# [2] = target: T2, his-tagged human CDH6 extracellular …; assay: ELISA, coated antigen
# [3] = target: T1, human CDH6 on tumor cells (OVCAR3 …); assay: FACS, PA-1 cells
# Procedure: OVCAR3 cells with high expression of CDH6 and PA-1 cells with moderate expression of CDH6 were used to detect the binding activity of the antibodies to the cells. […] The cells were washed once with PBS, counted, resuspended to 2×10⁶ cells/mL in an FACS buffer (PBS+2% FBS), and then added to a 96-well plate at 50 μL/well. The chimeric antibodies were diluted with FACS buffer (PBS+2% FBS) and added to the 96-well plate at 50 μL/well, and the plate was incubated at 4° C. for 1 h. […] The dilution was added to the 96-well plate at 50 μL/well, and the plate was incubated at 4° C. for 1 h. After the plates were centrifuged and washed 2 times with PBS, the cells were resuspended in an FACS buffer. The mean fluorescence intensity (MFI) was measured using FACS Canton II (BD). Analysis was performed by the GraphPad Prism software, data were fitted, and EC50 values were calculated. The chimeric antibodies tested had strong binding to both OVCAR3 cells and PA-1 cells.
# According to the above sequences, heavy chain (HC) and light chain (LC) plasmids were constructed (the nucleic acid sequences encoding the VH and VL of the antibodies were recombined into an expression vector carrying a signal peptide (SEQ ID NO: 132, […]) and a heavy chain constant region/light chain constant region sequence to obtain recombinant plasmids expressing VH-CH1-Fc/VL-CL). According to the expression and purification methods in Example 2, the hCDH6-14 humanized antibodies were obtained, and the binding activity of the humanized antibodies was detected by ELISA and FACS (see 2.2 and 2.3 for the method).
binder,measurement,setting,value
"hCDH6-14-H6L3 (antibody, V domains shown, Humanized) VH: EVQLVQSGAEVKKPGASVKVSCKASGYTFTDNYINWVRQAPGQRLEWMGWIYPGTGNSYYNEKFKGRVTITVDTSASTAYMELSSLRSEDTAVYLCASSYGDSFDYWGQGTTVTVSS VL: DIVMTQSPDSLAVSLGERATINCRASQDIRNYLNWYQQKPGQTPKLLISYTSRLHSGVPDRFSGSGSGTDFTLTISSLQAEDVAVYYCQQYSQLPWTFGGGTKVEIK",MFI_4° C.,[1],16100 MFI
same,EC50,[2],0.062 nM
same,Max OD450,[2],2.72 OD450
same,EC50,[3],0.25 nM
same,Max MFI,[3],3890 MFI
